Test results: patent publication US20130064817A1
Numbering of substitutions follows the chain as printed. Names may count otherwise.

B1: humanized 20D7 antibody with hu20D7-a heavy chain variable domain (antibody, part only; not given: unnamed light chain, V domains shown, part only)
VH: QVQLVQSGAEVKKPGASVKVSCKASGYTFTNYAMNWVRQAPGQGLEWMGWINTYTGEPTYNEKFKGRVTMTTDTSTSTAYMELRSLRSDDTAVYYCARGGGYDEDYFDYWGQGTLVTVSS
B2: humanized 20D7 antibody with hu20D7-c heavy chain variable domain (T72L, M70F) (antibody, part only; not given: unnamed light chain, V domains shown, part only)
VH: B1 VH with N61S, E62D, K63D, M70F, T72L
B3: humanized 20D7 antibody with hu20D7-b heavy chain variable domain (T72L) (antibody, part only; not given: unnamed light chain, V domains shown, part only)
VH: B1 VH with N61S, E62D, K63D, T72L

Target: human IL-23R (human) (UniProt Q5VWK5)
Experiment: BIAcore, antibody immobilized on CM5 chip

Sequence of human IL-23R (human) (Q5VWK5 24-353 L310P limits assumed): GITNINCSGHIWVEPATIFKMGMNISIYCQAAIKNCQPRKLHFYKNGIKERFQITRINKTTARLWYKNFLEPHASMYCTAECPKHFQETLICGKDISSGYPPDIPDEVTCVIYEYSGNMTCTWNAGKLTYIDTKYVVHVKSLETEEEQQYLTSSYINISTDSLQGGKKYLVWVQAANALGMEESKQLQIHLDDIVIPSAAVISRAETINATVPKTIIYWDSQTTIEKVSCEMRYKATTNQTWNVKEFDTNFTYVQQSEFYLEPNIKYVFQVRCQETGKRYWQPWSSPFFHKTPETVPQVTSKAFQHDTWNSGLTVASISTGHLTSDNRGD

Row | Binder | Kd [nM] | fold reduction of binding affinity against mouse 20D7 [fold] | fold improvement of binding affinity against the simple humanization (hu20D7-a) [fold]
1 | B1 | 4.3 | 50 | 
2 | B2 | 0.23 |  | 20
3 | B3 | 0.36 |  | 
